From US20200165334A1 (FRAUNHOFER GESELLSCHAFT ZUR F RDERUNG DER ANGEWANDTEN …, published 2020)

T1: murine IL-38 (mouse, UniProt Q8R459 1-152, limits assumed, C-terminally-biotinylated form)
T1 construct: Bacterially expressed in a C-terminally-biotinylated form and used as the antigen for phage selection; also called mouse IL-38; IL1F10
T1 sequence (looked up): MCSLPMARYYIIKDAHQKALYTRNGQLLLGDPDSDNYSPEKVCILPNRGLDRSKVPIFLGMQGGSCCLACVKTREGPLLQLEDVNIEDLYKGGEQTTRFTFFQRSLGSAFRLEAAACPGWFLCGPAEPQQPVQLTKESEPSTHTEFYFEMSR

B1: Fab E04 (Fab, V domains shown)
VH: EVQLVESGGGLVQPGGSLRLSCAASGFSFSSSSIHWVRQAPGKGLEWVASISPYYSYTSYADSVKGRFTISADTSKNTAYLQMNSLRAEDTAVYYCARTVRGSKKPYFSGWAMDYWGQGTLVTVSS
VL: DIQMTQSPSSLSASVGDRVTITCRASQSYYSYVAWYQQKPGKAPKLLIYSASSLYSGVPSRFSGSRSGTDFTLTISSLQPEDFATYYCQQVFAPITFGQGTKVEIK
notes: the constant domains of the Fab are not
B2: Fab H06 (Fab, V domains shown)
VH: EVQLVESGGGLVQPGGSLRLSCAASGFSLSYSYIHWVRQAPGKGLEWVASISPSYSYTSYADSVKGRFTISADTSKNTAYLQMNSLRAEDTAVYYCARAPVPHVWPYSGFDYWGQGTLVTVSS
VL: DIQMTQSPSSLSASVGDRVTITCRASQSVSSAVAWYQQKPGKAPKLLIYSASSLYSGVPSRFSGSRSGTDFTLTISSLQPEDFATYYCQQAYWSPITFGQGTKVEIK
notes: as for B1

Biological target: T1, murine IL-38
Test: biolayer interferometry, fitted sensorgrams (association to about 600 s, dissociation to 1800 s); concentrations of the traces not given

| Binder | Kd [nM] |
| --- | --- |
| B1 | 6.7 |
| B2 | 69 |
